Laboratory results from patent US20180201670A1 (published 2018).

What was measured:
[1] = molecular target: T1, analyte of Example 8 (not named); experiment: Biacore (SPR); analyte not named
T1 construct: Target of the Biacore run of Hu-6C1-H3bL2

pH4-treated TTR [2] = molecular target: T2, pH4-treated TTR (human, UniProt P02766 21-147); experiment: Sandwich ELISA (pH 4-TTR)
pH4-treated TTR [3] = molecular target: T2, pH4-treated TTR; experiment: ELISA; pH4-TTR captured on anti-His-coated plate, mAb 0.31-2.5 µg/ml
Method: Four lead mis-TTR mAbs (9D5, 14G8, 6C1, and 5A1) were assayed by ELISA at concentrations ranging from 0.31 to 2.5 μg/ml using both pH4.0-treated TTR (pH4-TTR) and native TTR as the coating antigen. TTR antigen preparation and ELISA protocols are described elsewhere in Materials and Methods (e-g).
Coated and blocked 96-well plates were treated with 50 μl per well of 2.5 μg/ml TTR antigen (either native TTR or pH4-TTR) for 1 hr. at room temperature. The plates were then washed two times with 250 μl per well of wash buffer (1× Tris Buffered Saline containing 0.05% Tween-20). Washed plates were then treated with 50 μl per well of the appropriate anti-TTR monoclonal antibody at concentrations ranging from of 0.31 to 2.5 μg/ml, for 1 hr.
The treated plates were washed 3 times with 250 μl perwell wash buffer. After washing, the plates were treated for 1 hr. with 50 μl per well of detection antibody comprising a 1:5,000 dilution of […] goat-anti-mouse (Jackson ImmunoResearch #115-035-164) in 1×PBS. The plate was then washed 3 times prior to the addition of 100 μl per well TMB substrate (Rockland). The HRP reaction was allowed to proceed at room temperature for 15 min. before quenching with a 50 μl per well volume of 1N […]. Spectroscopic absorbance was measured at a wavelength of 450 nm.

Kd [1] | koff [1] | kon [1] | Kd (pH4-treated TTR [2]) | Kd (pH4-treated TTR [3]) | Binder
1.46 nM | 0.000545 s⁻¹ | 372000 M⁻¹ s⁻¹ | – | – | Hu-6C1-H3bL2 (antibody, human IgG1, kappa, V domains shown, also called Hu6C1VHv3b/VLv2; humanized 6C1 heavy chain version 3b / light chain version 2) VH: EVQLVESGGGLVQPGGSLKLSCAASGFTFSNYYMSWVRQAPGKRLEWVAYISIDGNNIYHPDSVKGRFTISRDNAKNTLYLQMNSLKAEDTAMYYCARDSDYGYFDVWGQGTLVTVSS VL: DIVMTQTPLSLPVTPGEPASISCRSSQSIVHSNGNTYLEWYLQKPGQSPKLLIYKVSKRFSGVPDRFSGSGSGTDFTLKISRVEAEDVGVYYCFQGSHVPLTFGGGTKVEIKR
– | – | – | 257 nM | 282 nM | 9D5 (antibody, V domains shown) VH: EVKLVESGGGLVQPGGSLKLSCAASGFTFSSYTMSWVRQTPEKRLELVAEISNSGDTTYYPDTVKGRFTFSRDNAKNTLYLQMSSLKSEDTAMYYCARHYYYGGGYGGWFFDVWGTGTTVTVSS VL: DIVMTQAAPSVPVTPGESVSISCRSSKSLLHSNGNTYLYWFLQRPGQSPQLLIYRVSNLASGVPDRFSGSGSGTAFTLRISRVEAEDVGVYYCMQHLEYPLTFGAGTKLELK
